The text below walks through data of paper PMC8100176, “Cryo-EM structure of ABCG5/G8 in complex with modulating antibodies” (Communications Biology, 2021).

For assay [1], the target named is T1, ABCG5/G8 heterodimer (ATP-binding cassette transporters ABCG5 and ABCG8), human, full length (Homo sapiens, UniProt Q9H222;Q9H221).
T1 construct: ABCG5, human, full length; followed by a TEV protease cleavage site and a 12 His tag on the C-terminus; ABCG8, human, full length; In DDM micelles for SPR and the ATPase assay; in saposin A-based nanodiscs for cryo-EM; also called ABCG5/ABCG8; source: Pichia pastoris (ATUM-9016 strain), membranes extracted with DDM, purified (HisTrap, Superdex 200)
Nature of the assay: SPR; Biacore T200, CM5 chip with goat anti-mouse IgG Fc antibody capturing the mouse anti-ABCG5/G8 mAbs (~100 Ru); ABCG5/G8 in DDM micelles, multicycle kinetics, 6 pM to 100 nM, 50 µL/min, 180 s association, 1800 s dissociation (the legend of Fig. 1 says instead that mAb was injected over immobilized ABCG5/G8). To be noted: both partners purified. Background: Surface plasmon resonance follows binding to a sensor surface in real time, without labels.

The target of assay [2] is T2, ABCG8 (ATP-binding cassette transporter G8), human, full length, half transporter of the ABCG5/G8 heterodimer (human, UniProt Q9H221).
T2 construct: ABCG8, human, full length; Same chain as the second chain of m1; written alone for the contacts seen in the structure; First residue seen in the cryo-EM structure is Phe28; source: Pichia pastoris (ATUM-9016 strain), expressed with ABCG5 and purified as the heterodimer (HisTrap, Superdex 200)
Nature of the assay: cryo-EM structure; ternary complex of ABCG5/G8 with Fab 2E10 and Fab 11F4, purified by size exclusion, in saposin A-based nanodiscs; nucleotide-free, inward-facing; 3.3 Å. To be noted: both partners purified. (In general: In gel filtration, larger molecules generally elute earlier.)

T2 sequence (Q9H221 whole entry, one chain of several): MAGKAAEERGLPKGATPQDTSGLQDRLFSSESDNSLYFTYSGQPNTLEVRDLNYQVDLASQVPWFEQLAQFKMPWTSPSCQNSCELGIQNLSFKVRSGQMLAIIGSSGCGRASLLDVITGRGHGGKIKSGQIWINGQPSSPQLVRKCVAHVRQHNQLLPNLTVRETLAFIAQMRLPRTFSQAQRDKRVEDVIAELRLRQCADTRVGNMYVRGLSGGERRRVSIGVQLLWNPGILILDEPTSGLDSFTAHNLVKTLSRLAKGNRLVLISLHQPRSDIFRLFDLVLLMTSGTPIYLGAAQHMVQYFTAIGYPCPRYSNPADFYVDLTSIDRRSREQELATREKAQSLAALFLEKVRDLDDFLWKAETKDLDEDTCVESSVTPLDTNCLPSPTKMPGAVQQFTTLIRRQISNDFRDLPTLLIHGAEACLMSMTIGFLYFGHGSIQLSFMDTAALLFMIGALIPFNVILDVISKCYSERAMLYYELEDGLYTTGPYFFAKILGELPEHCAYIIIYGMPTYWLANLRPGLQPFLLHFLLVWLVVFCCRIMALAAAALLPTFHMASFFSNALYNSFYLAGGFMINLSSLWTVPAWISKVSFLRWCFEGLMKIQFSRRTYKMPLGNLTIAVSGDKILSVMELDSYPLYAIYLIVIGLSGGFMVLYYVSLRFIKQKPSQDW
T1 sequence (Q9H222 whole entry, chain 1 of 2): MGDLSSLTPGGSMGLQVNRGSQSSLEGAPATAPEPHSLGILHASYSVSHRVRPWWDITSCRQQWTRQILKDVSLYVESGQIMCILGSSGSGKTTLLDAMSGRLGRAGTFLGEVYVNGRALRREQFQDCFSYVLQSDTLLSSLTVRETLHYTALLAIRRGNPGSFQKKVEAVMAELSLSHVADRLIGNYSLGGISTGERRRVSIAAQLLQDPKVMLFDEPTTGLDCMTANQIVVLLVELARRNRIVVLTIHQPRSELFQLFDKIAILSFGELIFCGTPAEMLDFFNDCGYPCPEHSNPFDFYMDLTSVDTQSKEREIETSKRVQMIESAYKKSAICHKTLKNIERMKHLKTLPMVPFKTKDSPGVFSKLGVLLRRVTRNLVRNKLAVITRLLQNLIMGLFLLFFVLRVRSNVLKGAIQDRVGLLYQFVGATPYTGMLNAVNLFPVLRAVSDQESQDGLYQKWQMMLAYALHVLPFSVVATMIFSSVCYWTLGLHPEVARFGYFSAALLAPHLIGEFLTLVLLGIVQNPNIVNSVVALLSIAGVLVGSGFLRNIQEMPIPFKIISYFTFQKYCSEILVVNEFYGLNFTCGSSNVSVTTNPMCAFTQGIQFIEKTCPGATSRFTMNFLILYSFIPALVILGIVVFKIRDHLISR
T1 sequence (Q9H221 whole entry, chain 2 of 2): as the sequence (Q9H221 whole entry, one chain of several) above

B1: monoclonal antibody 11F4 against ABCG5/G8 (antibody, V domains shown)
VH: DVQLQESGPGLVKPSQSLSLTCTITGYSITSDYAWNWIRQFPGNKLEWMGYISYSGTTYYNPSLKSRFSITRDTSRNQFFLQFNSVTTEDTGTYFCARMITTVYYFDYWGQGTTLTVSS
VL: QIVLTQSPTIMSASLGERVTMTCTASSSASSSYLHWYQQKPGSSPKLWIYSTSNLASGVPARFSGSGSGTSYSLTISNMEAEDAATYYCHQHHRSPPTFGAGTKLELK
notes: the Fab part of the heavy chain is in PDB 7JR7 (as the heavy chain of m5); as the light chain of m5, in PDB 7JR7; Mouse IgG (captured by goat anti-mouse IgG Fc); also called mAb 11F4; source: produced at the antibody core facility at Oregon Health Science University
The Kd is the constant that tells how readily two partners part at equilibrium. A lower Kd goes with tighter binding. B1: binding in assay [1] was put at a Kd of 120 pM.

B2: Fab fragment of monoclonal antibody 11F4 (Fab, V domains shown)
VH: B1 VH
VL: B1 VL
notes: also called Fab 11F4; Fab11F4; source: papain cleavage of mAb 11F4, purified by gel filtration chromatography
For the molecule B2, the binding result in assay [2] was “binds”.

B3: monoclonal antibody 2E10 against ABCG5/G8 (antibody, V domains shown)
VH: QVHLQQSGAELVRPGTSVKMSCKAAGYTFTYWWIGWLKQRPGHGLEWIGDFFPVSGHTNFNEKFRDKATLTADTSSSTAYMQLNSLTSEDSAIYYCARKQDSSGPLYAMDYWGQGTSVTVSS
VL: DIQMTQSSSYLSVSLGGRVTITCKASDHINNWLAWYQQKPGNAPRLLISAATSLETGVPSRFSGSGSGKDYTLSIISLQTEDVATYYCQQYWSTPFTFGSGTKLEIK
notes: the Fab part of the heavy chain is in PDB 7JR7 (as the heavy chain of m4); as the light chain of m4, in PDB 7JR7; Mouse IgG (captured by goat anti-mouse IgG Fc); also called mAb 2E10; source: produced at the antibody core facility at Oregon Health Science University
Regarding B3, the affinity in assay [1], expressed as Kd, was 110 pM.

B4: Fab fragment of monoclonal antibody 2E10 (Fab, V domains shown)
VH: B3 VH
VL: B3 VL
notes: also called Fab 2E10; source: papain cleavage of mAb 2E10, purified by gel filtration chromatography
Turning to B4, the binding result in assay [2] is reported as “binds”.
